These results are taken from publication doi:10.1101/2024.10.22.619416 (bioRxiv, 2024).

The term Kd denotes the free concentration of one partner at which half of the binding sites on the other are occupied at equilibrium, for simple one-to-one binding. A high value points to weaker binding.

This test concerns the target SARS-CoV-2 (2019-nCoV) Spike RBD protein (SARS-CoV-2 (2019-nCoV), ancestral …, UniProt P0DTC2). Put plainly: BLI. A general note: In BLI a coated tip is dipped into the sample, and binding shifts an interference pattern.

B1: alpaca nanobody 3-2A2-4 (VHH)
VHH: QVQLQESGGGLVQPGESLRLSCAASGSISTLNVMGWYRQAPGKQRELVAQITLDGSPEYADSVKGRFTITKDGAQSTLYLQMNNLKPEDTAVYFCKLENGGFFYYWGQGTQVTVST
Molecule B1 had a Kd of 5.47 nM.

B2: humanized nanobody hNb1.1 (VHH)
VHH: EVQLVESGGGLVQPGGSLRLSCAASGSISTLNVMGWFRQAPGKGREWVAAITLDGSPYYADSVKGRFTISRDNAKNTLYLQMNSLRPEDTAVYYCKLENGGFFYYWGQGTQVTVSS
On to B2, for which the Kd was found to be 2.52 nM.

B3: humanized nanobody hNb1.5 (VHH)
VHH: EVQLVESGGGLVQPGGSLRLSCAASGSISTLNVMGWYRQAPGKQRELVAQITLDGSPEYADSVKGRFTISRDNSKNTLYLQMNSLKPEDTAVYYCKLENGGFFYYWGQGTQVTVSS
For B3, the Kd worked out at 7.4 nM.

B4: humanized nanobody hNb1.4 (VHH)
VHH: EVQLVESGGGLVQPGGSLRLSCAASGSISTLNVMGWYRQAPGKQRELVAQITLDGSPEYADSVKGRFTISRDNAKNTLYLQMNSLRAEDTAVYYCKLENGGFFYYWGQGTQVTVSS
B4 registered a Kd of 5.83 nM.

B5: humanized nanobody hNb1.2 (VHH)
VHH: EVQLVESGGGLVQPGGSLRLSCAASGSISTLNVMSWVRQAPGKGLEWVSSITLDGSPYYADSVKGRFTISRDNSKNTLYLQMNSLRVEDTAVYYCKLENGGFFYYWGQGTLVTVSS
B5 returned a Kd of 45.7 nM.

B6: humanized nanobody hNb1.3 (VHH)
VHH: EVQLVESGGGLVQPGGSLRLSCAASGSISTLNVMSWVRQAPGKGLEWVSSITLDGSPNYADSVKGRFTISRDNSKNTLYLQMNSLRVEDTAVYYCKLENGGFFYYWGQGTLVTVSS
Molecule B6 displayed a Kd of 58.2 nM.

B7: humanized antibody hAb1.1 (antibody, V domains shown)
VH: QVQLQESGPGLVKPSETLSLTCSVSGFSLINYAISWIRQPPGKGLEWIGVIWTGGGTNYNSALKSRLTISRDTSKNQVFLKMNSVTAADTAVYYCARKDYYGRYYGMDYWGQGTLVTVSS
VL: QAVVTQEPSLTVSPGGTVTLTCRSSTGAVTTSNYANWLQQKPGQAPRGLIGGTNNRAPGVPPRFSGSILGDKAALTLSGAQSEDEADYYCALWYNNHWVFGGGTKLTVL
Molecule B7 registered a Kd of 0.27 nM.

B8: humanized antibody hAb1.4 (antibody, V domains shown)
VH: QVQLQESGPGLVKPSETLSLTCTVSGFSLINYAISWVRQAPGKGLEWIGVIWTGGGTNYNSALKSRLTISVDTSKSQVSLRLSSVTAADTAVYYCARKDYYGRYYGMDYWGQGTLVTVSS
VL: QAVVTQEPSLTVSPGGTVTLTCRSSTGAVTTSNYANWFQQKPGQAPRGLIGGTNNRAPGVPARFSGSILGGKAALTLSGAQPEDEADYYCALWYNNHWVFGGGTKLTVL
B8 registered a Kd of 1.03 nM.

B9: humanized antibody hAb1.2 (antibody, V domains shown)
VH: QVQLQESGPGLVKPSETLSLTCTVSGFSLINYAISWIRQAPGKGLEWIGVIWTGGGTNYNSALKSRLTISRDTSKSQVFLKLNSVTAADTAVYYCARKDYYGRYYGMDYWGQGTLVTVSS
VL: QAVVTQEPSLTVSPGGTVTLTCRSSTGAVTTSNYANWFQQKPGQAPRGLIGGTNNRAPWVPDRFSGSLLGGKAALTLSGAQPEDEADYYCALWYNNHWVFGGGTKLTVL
B9: the Kd was 0.15 nM.

B10: humanized antibody hAb1.5 (antibody, V domains shown)
VH: QVQLQESGPGLVKPSETLSLTCTVSGFSLINYAISWIRQAPGKGLEWIGVIWTGGGTNYNSALKSRLTISVDTSKSQFSLKLSSVTAADTAVYYCARKDYYGRYYGMDYWGQGTLVTVSS
VL: QAVVTQEPSLTVSPGGTVTLTCRSSTGAVTTSNYANWFQQRPGQPPRGLIGGTNNRAPGVPARFSGSILGGKAALTLSGAQPEDEADYYCALWYNNHWVFGGGTKLTVL
As for B10, binding was characterised by a dissociation constant (Kd) of 6.37 nM.
